# B1: Twister Ribozyme (parent)
# chain: AACACUGCCAAUGCCGGUCCCAAGCCCGGAUAAAAGUGGAGGGGGCGG
# Variants of: B1
# Test: self-cleavage, relative activity (ratio to wild type); higher = more cleavage; co-transcriptional
row,Variant,self-cleavage
1,AACACUGCCAAUGCCGGUCCCAAGCCCGGAUAAAAGGGGAGGGUGCGG,0.805
2,AACACUGCCAAUGCCGGUCCCAAGCCCGGAUAAAAGUGAAGGGGGCGU,0.517
3,AACACUGCCAAUGCCGGUCCCAAGCCCGGAUAAAAGUGAAGGGGGCGA,0.388
4,AACACUGCCAAUGCCGGUCCCAAGCCCGGAUAAAAGGCGAGGGGGCGG,0.208
5,AACACUGCCAAUGCCGGUCCCAAGCCCGGAUAAAAGCGUAGGGGGCGG,0.11
6,AACACUGCCAAUGCCGGUCCCAAGCCCGGAUAAAAGUGAAGGGGACGG,0.418
7,AACACUGCCAAUGCCGGUCCCAAGCCCGGAUAAAAGUGAAGGGCGCGG,0.231
8,AACACUGCCAAUGCCGGUCCCAAGCCCGGAUAAAAGUGAAGGGUGCGG,0.322
9,AACACUGCCAAUGCCGGUCCCAAGCCCGGAUAAAAGUAGAGGGUGCGG,0.846
10,AACACUGCCAAUGCCGGUCCCAAGCCCGGAUAAAAGUAGAGGGAGCGG,0.897
11,AACACUGCCAAUGCCGGUCCCAAGCCCGGAUAAAAGUGAAGGGGGCAG,0.363
12,AACACUGCCAAUGCCGGUCCCAAGCCCGGAUAAAAGGGUAGGGGGCGG,0.114
13,AACACUGCCAAUGCCGGUCCCAAGCCCGGAUAAAAGGGCAGGGGGCGG,0.143
14,AACACUGCCAAUGCCGGUCCCAAGCCCGGAUAAAAGGGGAGGGGGCAG,0.673
15,AACACUGCCAAUGCCGGUCCCAAGCCCGGAUAAAAGGGGAGGGGGCCG,0.306
16,AACACUGCCAAUGCCGGUCCCAAGCCCGGAUAAAAGCGGAGGGGGCCG,0.341
17,AACACUGCCAAUGCCGGUCCCAAGCCCGGAUAAAAGUGACGGGGGCGG,0.139
18,AACACUGCCAAUGCCGGUCCCAAGCCCGGAUAAAAGUGAUGGGGGCGG,0.161
19,AACACUGCCAAUGCCGGUCCCAAGCCCGGAUAAAAGUGAGGGGGGCGG,0.145
20,AACACUGCCAAUGCCGGUCCCAAGCCCGGAUAAAAGGGGAGGUGGCGG,0.173
21,AACACUGCCAAUGCCGGUCCCAAGCCCGGAUAAAAGGGGAGGAGGCGG,0.13
22,AACACUGCCAAUGCCGGUCCCAAGCCCGGAUAAAAGUGCCGGGGGCGG,0.114

row,Variant,self-cleavage
1,AACACUGCCAAUGCCGGUCCCAAGCCCGGAUAAAAGUGCGGGGGGCGG,0.164
2,AACACUGCCAAUGCCGGUCCCAAGCCCGGAUAAAAGUUGAGCGGGCGG,0.177
3,AACACUGCCAAUGCCGGUCCCAAGCCCGGAUAAAAGUUGAGUGGGCGG,0.12
4,AACACUGCCAAUGCCGGUCCCAAGCCCGGAUAAAAGUUGAGAGGGCGG,0.129
5,AACACUGCCAAUGCCGGUCCCAAGCCCGGAUAAAAGUAGAGAGGGCGG,0.176
6,AACACUGCCAAUGCCGGUCCCAAGCCCGGAUAAAAGUAGAGCGGGCGG,0.247
7,AACACUGCCAAUGCCGGUCCCAAGCCCGGAUAAAAGUGAAGCGGGCGG,0.12
8,AACACUGCCAAUGCCGGUCCCAAGCCCGGAUAAAAGCGGAGGGGGCGA,0.639
9,AACACUGCCAAUGCCGGUCCCAAGCCCGGAUAAAAGUAGGGGGGGCGG,0.131
10,AACACUGCCAAUGCCGGUCCCAAGCCCGGAUAAAAGUAGUGGGGGCGG,0.118
11,AACACUGCCAAUGCCGGUCCCAAGCCCGGAUAAAAGUGAAGGCGGCGG,0.134
12,AACACUGCCAAUGCCGGUCCCAAGCCCGGAUAAAAGUGAAGGAGGCGG,0.152
13,AACACUGCCAAUGCCGGUCCCAAGCCCGGAUAAAAGUUGAGGCGGCGG,0.126
14,AACACUGCCAAUGCCGGUCCCAAGCCCGGAUAAAAGUUGAGGAGGCGG,0.154
15,AACACUGCCAAUGCCGGUCCCAAGCCCGGAUAAAAGUUGAGGUGGCGG,0.156
16,AACACUGCCAAUGCCGGUCCCAAGCCCGGAUAAAAGUGAAGGGGGAGG,0.463
17,AACACUGCCAAUGCCGGUCCCAAGCCCGGAUAAAAGUGAAGGGGGUGG,0.445
18,AACACUGCCAAUGCCGGUCCCAAGCCCGGAUAAAAGUUGAGGGAGCGG,0.811
19,AACACUGCCAAUGCCGGUCCCAAGCCCGGAUAAAAGUUGAGGGCGCGG,0.829
20,AACACUGCCAAUGCCGGUCCCAAGCCCGGAUAAAAGUAGAUGGGGCGG,0.315
21,AACACUGCCAAUGCCGGUCCCAAGCCCGGAUAAAAGUAGACGGGGCGG,0.157
22,AACACUGCCAAUGCCGGUCCCAAGCCCGGAUAAAAGUAGAGGGGGCGU,1.1

row,Variant,self-cleavage
1,AACACUGCCAAUGCCGGUCCCAAGCCCGGAUAAAAGUAGAGGGGGGGG,0.966
2,AACACUGCCAAUGCCGGUCCCAAGCCCGGAUAAAAGUAGAGGGGGAGG,0.875
3,AACACUGCCAAUGCCGGUCCCAAGCCCGGAUAAAAGGGGGGGGGGCGG,0.155
4,AACACUGCCAAUGCCGGUCCCAAGCCCGGAUAAAAGCAGAGGGGGCGG,0.166
5,AACACUGCCAAUGCCGGUCCCAAGCCCGGAUAAAAGUCGAGGGGGCCG,0.388
6,AACACUGCCAAUGCCGGUCCCAAGCCCGGAUAAAAGUCGAGGGGGCAG,0.737
7,AACACUGCCAAUGCCGGUCCCAAGCCCGGAUAAAAGUCGAGGGGGCUG,0.76
8,AACACUGCCAAUGCCGGUCCCAAGCCCGGAUAAAAGUAGAGGCGGCGG,0.148
9,AACACUGCCAAUGCCGGUCCCAAGCCCGGAUAAAAGUAGAGGAGGCGG,0.19
10,AACACUGCCAAUGCCGGUCCCAAGCCCGGAUAAAAGUCGAAGGGGCGG,0.295
11,AACACUGCCAAUGCCGGUCCCAAGCCCGGAUAAAAGUCGACGGGGCGG,0.181
12,AACACUGCCAAUGCCGGUCCCAAGCCCGGAUAAAAGUCGAUGGGGCGG,0.304
13,AACACUGCCAAUGCCGGUCCCAAGCCCGGAUAAAAGUUGGGGGGGCGG,0.101
14,AACACUGCCAAUGCCGGUCCCAAGCCCGGAUAAAAGUUGUGGGGGCGG,0.116
15,AACACUGCCAAUGCCGGUCCCAAGCCCGGAUAAAAGUUGCGGGGGCGG,0.127
16,AACACUGCCAAUGCCGGUCCCAAGCCCGGAUAAAAGUCGGGGGGGCGG,0.134
17,AACACUGCCAAUGCCGGUCCCAAGCCCGGAUAAAAGUCGCGGGGGCGG,0.134
18,AACACUGCCAAUGCCGGUCCCAAGCCCGGAUAAAAGGGGAGGGGGCGU,0.856
19,AACACUGCCAAUGCCGGUCCCAAGCCCGGAUAAAAGUCGAGGGGGUGG,0.855
20,AACACUGCCAAUGCCGGUCCCAAGCCCGGAUAAAAGGGGAGAGGGCGG,0.171
21,AACACUGCCAAUGCCGGUCCCAAGCCCGGAUAAAAGGGGAGCGGGCGG,0.103
22,AACACUGCCAAUGCCGGUCCCAAGCCCGGAUAAAAGGGGAGUGGGCGG,0.163

row,Variant,self-cleavage
1,AACACUGCCAAUGCCGGUCCCAAGCCCGGAUAAAAGUUGAGGGGGCGA,0.854
2,AACACUGCCAAUGCCGGUCCCAAGCCCGGAUAAAAGUUGAGGGGGCGU,1.05
3,AACACUGCCAAUGCCGGUCCCAAGCCCGGAUAAAAGUCGAGUGGGCGG,0.183
4,AACACUGCCAAUGCCGGUCCCAAGCCCGGAUAAAAGUCGAGCGGGCGG,0.238
5,AACACUGCCAAUGCCGGUCCCAAGCCCGGAUAAAAGCGGAGGGUGCGG,0.768
6,AACACUGCCAAUGCCGGUCCCAAGCCCGGAUAAAAGCGGAGGGAGCGG,0.69
7,AACACUGCCAAUGCCGGUCCCAAGCCCGGAUAAAAGCGGAGGGCGCGG,0.738
8,AACACUGCCAAUGCCGGUCCCAAGCCCGGAUAAAAGUUGAUGGGGCGG,0.196
9,AACACUGCCAAUGCCGGUCCCAAGCCCGGAUAAAAGUUGAAGGGGCGG,0.162
10,AACACUGCCAAUGCCGGUCCCAAGCCCGGAUAAAAGUUGACGGGGCGG,0.149
11,AACACUGCCAAUGCCGGUCCCAAGCCCGGAUAAAAGUGAAUGGGGCGG,0.125
12,AACACUGCCAAUGCCGGUCCCAAGCCCGGAUAAAAGUGAAAGGGGCGG,0.153
13,AACACUGCCAAUGCCGGUCCCAAGCCCGGAUAAAAGUCGAGGGGUCGG,0.719
14,AACACUGCCAAUGCCGGUCCCAAGCCCGGAUAAAAGUCGAGGGGCCGG,0.473
15,AACACUGCCAAUGCCGGUCCCAAGCCCGGAUAAAAGGGGAGGGGGUGG,0.76
16,AACACUGCCAAUGCCGGUCCCAAGCCCGGAUAAAAGGGGAGGGGGGGG,0.79
17,AACACUGCCAAUGCCGGUCCCAAGCCCGGAUAAAAGUCGAGGGGGCGA,0.974
18,AACACUGCCAAUGCCGGUCCCAAGCCCGGAUAAAAGUCGAGGGGGCGC,0.977
19,AACACUGCCAAUGCCGGUCCCAAGCCCGGAUAAAAGCGGAGAGGGCGG,0.105
20,AACACUGCCAAUGCCGGUCCCAAGCCCGGAUAAAAGCGGAGUGGGCGG,0.127
21,AACACUGCCAAUGCCGGUCCCAAGCCCGGAUAAAAGCGGAGCGGGCGG,0.196
22,AACACUGCCAAUGCCGGUCCCAAGCCCGGAUAAAAGUAGAGGGGGCUG,0.814

row,Variant,self-cleavage
1,AACACUGCCAAUGCCGGUCCCAAGCCCGGAUAAAAGUAGAGGGGGCCG,0.522
2,AACACUGCCAAUGCCGGUCCCAAGCCCGGAUAAAAGUAGAGGGGGCGG,0.965
3,AACACUGCCAAUGCCGGUCCCAAGCCCGGAUAAAAGUUGAGGGGGCGG,0.923
4,AACACUGCCAAUGCCGGUCCCAAGCCCGGAUAAAAGUCGAGGGGGCGG,0.951
5,AACACUGCCAAUGCCGGUCCCAAGCCCGGAUAAAAGUUAAGGGGGCGG,0.185
6,AACACUGCCAAUGCCGGUCCCAAGCCCGGAUAAAAGUUCAGGGGGCGG,0.14
7,AACACUGCCAAUGCCGGUCCCAAGCCCGGAUAAAAGCGGAGGGGGGGG,0.706
8,AACACUGCCAAUGCCGGUCCCAAGCCCGGAUAAAAGUAGAGGGGACGG,0.797
9,AACACUGCCAAUGCCGGUCCCAAGCCCGGAUAAAAGUCAAGGGGGCGG,0.243
10,AACACUGCCAAUGCCGGUCCCAAGCCCGGAUAAAAGUUGAGGGGGCAG,0.564
11,AACACUGCCAAUGCCGGUCCCAAGCCCGGAUAAAAGCGGAGGGGACGG,0.691
12,AACACUGCCAAUGCCGGUCCCAAGCCCGGAUAAAAGCGGAGGGGCCGG,0.26
13,AACACUGCCAAUGCCGGUCCCAAGCCCGGAUAAAAGUUGAGGGGGUGG,0.864
14,AACACUGCCAAUGCCGGUCCCAAGCCCGGAUAAAAGUUGAGGGGGGGG,0.818
15,AACACUGCCAAUGCCGGUCCCAAGCCCGGAUAAAAGUCGAGGCGGCGG,0.137
16,AACACUGCCAAUGCCGGUCCCAAGCCCGGAUAAAAGUCGAGGUGGCGG,0.242
17,AACACUGCCAAUGCCGGUCCCAAGCCCGGAUAAAAGUCGAGGAGGCGG,0.149
18,AACACUGCCAAUGCCGGUCCCAAGCCCGGAUAAAAGGGGACGGGGCGG,0.113
19,AACACUGCCAAUGCCGGUCCCAAGCCCGGAUAAAAGGGGAUGGGGCGG,0.145
20,AACACUGCCAAUGCCGGUCCCAAGCCCGGAUAAAAGGGGAAGGGGCGG,0.209

# From the RNAGym collection of RNA variant scans (doi:10.7554/elife.80360)
